Experimental data from the RNAGym collection of RNA variant scans (doi:10.1101/gr.219683.116).

B1: mRNA-splicing (parent)
chain: AGUUGCUGCUGGGAGCUCCAGCACAGUGAAAUGGACAGAAGGGCAGAGCAA

Variants of: B1
Assay: exon inclusion enrichment index; higher = more inclusion; WT1 exon 5 minigene, HEK293

Variant | exon inclusion enrichment index
G5C C6U G8C C9U U10C G38C A39U | 0.141
G5C C6U G8C C9U U10C G38C A39G | 1.77
G5C C6U G8C C9U U10C G38C A39C | 1.84
G5C C6U G8C C9U U10C C18U C19A | 0.179
G5C C6U G8C C9U U10C C18U C19U | 0.0402
G5C C6U G8C C9U U10C C18U C19G | 0.675
G5C C6U G8C C9U U10C G15C | 2.54
G5C C6U G8C C9U U10C G15U | 2.23
G5C C6U G8C C9U U10C G15A | 0.641
G5C C6U G8C C9U U10C C18G C19G | 2.78
G5C C6U G8C C9U U10C C18G C19A | 2.82
G5C C6U G8C C9U U10C C18G C19U | 0.674
G5C C6U G8C C9U U10C C16A | 2.53
G5C C6U G8C C9U U10C C16U | 2.36
G5C C6U G8C C9U U10C C16G | 1.02
G5C C6U G8C C9U U10C G43U C44G | 0.398
G5C C6U G8C C9U U10C G43U C44A | 0.0354
G5C C6U G8C C9U U10C G43U C44U | 0.567
G5C C6U G8C C9U U10C A47U G48A | 1.58
G5C C6U G8C C9U U10C A47U G48C | 1.37
G5C C6U G8C C9U U10C A47U G48U | 1.45

Variant | exon inclusion enrichment index
G5C C6U G8C C9U U10C G43U | 1.51
G5C C6U G8C C9U U10C G43A | 3.52
G5C C6U G8C C9U U10C G43C | 1.75
G5C C6U G8C C9U U10C G11U | 1
G5C C6U G8C C9U U10C G11A | 0.742
G5C C6U G8C C9U U10C G11C | 2.41
G5C C6U G8C C9U U10C A45G | 3.56
G5C C6U G8C C9U U10C A45U | 2.45
G5C C6U G8C C9U U10C A45C | 2.06
G5C C6U G8C C9U U10C C24G | 2.4
G5C C6U G8C C9U U10C C24A | 1.72
G5C C6U G8C C9U U10C C24U | 0.544
G5C C6U G8C C9U U10C A30U | 1.34
G5C C6U G8C C9U U10C A31U U32C | 2.61
G5C C6U G8C C9U U10C A31U U32G | 1.04
G5C C6U G8C C9U U10C A31U U32A | 0.179
G5C C6U G8C C9U U10C G26U | 2.06
G5C C6U G8C C9U U10C G26A | 2.49
G5C C6U G8C C9U U10C G26C | 2.29
G5C C6U G8C C9U U10C G13C A14C | 1.15
G5C C6U G8C C9U U10C G13C A14U | 1.35

Variant | exon inclusion enrichment index
G5C C6U G8C C9U U10C G13C A14G | 1.94
G5C C6U G8C C9U U10C G28A A29U | 0.475
G5C C6U G8C C9U U10C G28A A29C | 1.12
G5C C6U G8C C9U U10C G28A A29G | 0.736
G5C C6U G8C C9U U10C A47G G48A | 1.24
G5C C6U G8C C9U U10C A47G G48C | 0.706
G5C C6U G8C C9U U10C A47G G48U | 0.205
G5C C6U G8C C9U U10C G12U G13A | 0.153
G5C C6U G8C C9U U10C G12U G13U | 0.0261
G5C C6U G8C C9U U10C G12U G13C | 0.698
G5C C6U G8C C9U U10C A37U G38U | 0.446
G5C C6U G8C C9U U10C A37U G38C | 1.03
G5C C6U G8C C9U U10C A37U G38A | 0.713
G5C C6U G8C C9U U10C C19A A20U | 0.553
G5C C6U G8C C9U U10C C19A A20G | 0.213
G5C C6U G8C C9U U10C C19A A20C | 0.813
G5C C6U G8C C9U U10C G41C G42U | 2.93
G5C C6U G8C C9U U10C G41C G42A | 2
G5C C6U G8C C9U U10C G41C G42C | 2.99
G5C C6U G8C C9U U10C A40G G41U | 1.75
G5C C6U G8C C9U U10C A40G G41A | 0.782

Variant | exon inclusion enrichment index
G5C C6U G8C C9U U10C A40G G41C | 3.24
G5C C6U G8C C9U U10C G34C A35G | 1.38
G5C C6U G8C C9U U10C G34C A35U | 0.385
G5C C6U G8C C9U U10C G34C A35C | 0.141
G5C C6U G8C C9U U10C G21C C22A | 1.71
G5C C6U G8C C9U U10C G21C C22G | 3.01
G5C C6U G8C C9U U10C G21C C22U | 1.79
G5C C6U G8C C9U U10C G11C G12C | 0.631
G5C C6U G8C C9U U10C G11C G12U | 0.675
G5C C6U G8C C9U U10C G11C G12A | 0.634
G5C C6U G8C C9U U10C G46A | 2.05
G5C C6U G8C C9U U10C G46C | 1.62
G5C C6U G8C C9U U10C C24A A25C | 3.4
G5C C6U G8C C9U U10C C24A A25G | 2.06
G5C C6U G8C C9U U10C C24A A25U | 1.94
G5C C6U G8C C9U U10C C24G A25G | 0.981
G5C C6U G8C C9U U10C C24G A25C | 3.27
G5C C6U G8C C9U U10C C24G A25U | 2.32
G5C C6U G8C C9U U10C A40C G41C | 2.97
G5C C6U G8C C9U U10C A40C G41A | 0.768
G5C C6U G8C C9U U10C A40C G41U | 0.895
